Experimental data as given in IntAct's records for PubMed 31515488.

B1: Tripartite motif-containing protein 59 (Homo sapiens), Q8IWR1 (parent)
chain: MHNFEEELTCPICYSIFEDPRVLPCSHTFCRNCLENILQASGNFYIWRPLRIPLKCPNCRSITEIAPTGIESLPVNFALRAIIEKYQQEDHPDIVTCPEHYRQPLNVYCLLDKKLVCGHCLTIGQHHGHPIDDLQSAYLKEKDTPQKLLEQLTDTHWTDLTHLIEKLKEQKSHSEKMIQGDKEAVLQYFKELNDTLEQKKKSFLTALCDVGNLINQEYTPQIERMKEIREQQLELMALTISLQEESPLKFLEKVDDVRQHVQILKQRPLPEVQPVEIYPRVSKILKEEWSRTEIGQIKNVLIPKMKISPKRMSCSWPGKDEKEVEFLKILNIVVVTLISVILMSILFFNQHIITFLSEITLIWFSEASLSVYQSLSNSLHKVKNILCHIFYLLKEFVWKIVSH
partner: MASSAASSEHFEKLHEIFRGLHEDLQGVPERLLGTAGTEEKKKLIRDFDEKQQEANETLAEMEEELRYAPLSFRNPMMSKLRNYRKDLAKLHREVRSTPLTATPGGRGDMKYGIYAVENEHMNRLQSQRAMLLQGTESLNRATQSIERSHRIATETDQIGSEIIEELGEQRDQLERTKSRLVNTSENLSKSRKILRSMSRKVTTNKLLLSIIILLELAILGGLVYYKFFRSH
B2: Ropporin-1A (Homo sapiens), Q9HAT0 (parent)
chain: MAQTDKPTCIPPELPKMLKEFAKAAIRVQPQDLIQWAADYFEALSRGETPPVRERSERVALCNRAELTPELLKILHSQVAGRLIIRAEELAQMWKVVNLPTDLFNSVMNVGRFTEEIEWLKFLALACSALGVTITKTLKIVCEVLSCDHNGGSPRIPFSTFQFLYTYIAKVDGEISASHVSRMLNYMEQEVIGPDGIITVNDFTQNPRVQLE
partner: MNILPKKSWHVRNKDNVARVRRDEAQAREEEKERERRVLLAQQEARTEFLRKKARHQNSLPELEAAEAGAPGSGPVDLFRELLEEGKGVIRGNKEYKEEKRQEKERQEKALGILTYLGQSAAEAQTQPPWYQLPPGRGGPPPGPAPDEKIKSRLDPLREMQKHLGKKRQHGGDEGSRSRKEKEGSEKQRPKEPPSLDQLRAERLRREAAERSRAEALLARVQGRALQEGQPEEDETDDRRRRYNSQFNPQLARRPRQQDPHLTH
B3: Notch homolog 2 N-terminal-like protein A (Homo sapiens), Q7Z3S9 (parent)
chain: MCVTYHNGTGYCKCPEGFLGEYCQHRDPCEKNRCQNGGTCVAQAMLGKATCRCASGFTGEDCQYSTSHPCFVSRPCLNGGTCHMLSRDTYECTCQVGFTGKECQWTDACLSHPCANGSTCTTVANQFSCKCLTGFTGQKCETDVNECDIPGHCQHGGTCLNLPGSYQCQCLQGFTGQYCDSLYVPCAPSPCVNGGTCRQTGDFTFECNCLPETVRRGTELWERDREVWNGKEHDEN
partner: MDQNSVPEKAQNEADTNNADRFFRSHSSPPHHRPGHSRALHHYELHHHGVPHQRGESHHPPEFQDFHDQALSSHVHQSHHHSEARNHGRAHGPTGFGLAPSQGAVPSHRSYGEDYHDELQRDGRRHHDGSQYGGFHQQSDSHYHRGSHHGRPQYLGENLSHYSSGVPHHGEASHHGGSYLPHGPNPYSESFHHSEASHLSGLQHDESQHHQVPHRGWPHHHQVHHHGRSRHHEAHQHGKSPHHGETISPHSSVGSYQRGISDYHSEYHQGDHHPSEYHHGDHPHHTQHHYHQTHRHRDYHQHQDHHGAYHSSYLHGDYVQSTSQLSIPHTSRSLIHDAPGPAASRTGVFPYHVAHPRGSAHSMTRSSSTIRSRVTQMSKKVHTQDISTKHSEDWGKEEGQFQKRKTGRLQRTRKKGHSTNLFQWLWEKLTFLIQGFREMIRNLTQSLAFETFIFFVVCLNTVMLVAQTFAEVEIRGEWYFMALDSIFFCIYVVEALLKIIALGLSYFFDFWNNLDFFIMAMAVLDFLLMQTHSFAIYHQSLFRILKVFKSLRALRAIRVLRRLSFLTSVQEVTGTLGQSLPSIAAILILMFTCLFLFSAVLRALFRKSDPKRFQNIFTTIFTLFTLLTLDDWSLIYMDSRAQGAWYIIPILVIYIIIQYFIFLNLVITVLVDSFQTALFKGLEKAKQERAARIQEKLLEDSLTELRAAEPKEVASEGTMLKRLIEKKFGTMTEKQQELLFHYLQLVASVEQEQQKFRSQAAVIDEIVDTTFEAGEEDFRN
B4: Protein LDOC1 (Homo sapiens), O95751 (parent)
chain: MVDELVLLLHALLMRHRALSIENSQLMEQLRLLVCERASLLRQVRPPSCPVPFPETFNGESSRLPEFIVQTASYMLVNENRFCNDAMKVAFLISLLTGEAEEWVVPYIEMDSPILGDYRAFLDEMKQCFGWDDDEDDDDEEEEDDY
partner: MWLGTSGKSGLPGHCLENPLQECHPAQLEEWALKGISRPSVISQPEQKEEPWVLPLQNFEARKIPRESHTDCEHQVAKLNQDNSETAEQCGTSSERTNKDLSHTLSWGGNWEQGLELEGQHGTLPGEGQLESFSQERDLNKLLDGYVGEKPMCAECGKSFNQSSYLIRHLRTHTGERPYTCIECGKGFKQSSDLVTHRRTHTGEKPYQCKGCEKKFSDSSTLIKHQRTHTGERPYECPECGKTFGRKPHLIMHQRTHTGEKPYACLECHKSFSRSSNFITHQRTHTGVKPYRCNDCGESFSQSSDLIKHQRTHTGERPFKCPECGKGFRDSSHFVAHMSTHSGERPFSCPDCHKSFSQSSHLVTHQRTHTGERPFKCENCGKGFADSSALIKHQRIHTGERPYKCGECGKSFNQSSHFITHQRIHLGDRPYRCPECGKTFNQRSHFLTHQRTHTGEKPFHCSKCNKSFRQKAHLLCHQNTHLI
B5: Phosphatidylinositol-3-phosphate phosphatase MTMR7 (Homo sapiens), Q9Y216 (parent)
chain: MEHIRTPKVENVRLVDRVSPKKAALGTLYLTATHVIFVENSPDPRKETWILHSQISTIEKQATTATGCPLLIRCKNFQIIQLIIPQERDCHDVYISLIRLARPVKYEELYCFSFNPMLDKEEREQGWVLIDLSEEYTRMGLPNHYWQLSDVNRDYRVCDSYPTELYVPKSATAHIIVGSSKFRSRRRFPVLSYYYKDNHASICRSSQPLSGFSARCLEDEQMLQAIRKANPGSDFVYVVDTRPKLNAMANRAAGKGYENEDNYSNIKFQFIGIENIHVMRNSLQKMLEVCELKSPSMSDFLWGLENSGWLRHIKAIMDAGIFIAKAVSEEGASVLVHCSDGWDRTAQVCSVASLLLDPHYRTLKGFMVLIEKDWISFGHKFNHRYGNLDGDPKEISPVIDQFIECVWQLMEQFPCAFEFNERFLIHIQHHIYSCQFGNFLCNSQKERRELKIQERTYSLWAHLWKNRADYLNPLFRADHSQTQGTLHLPTTPCNFMYKFWSGMYNRFEKGMQPRQSVTDYLMAVKEETQQLEEELEALEERLEKIQKVQLNCTKVKSKQSEPSKHSGFSTSDNSIANTPQDYSGNMKSFPSRSPSQGDEDSALILTQDNLKSSDPDLSANSDQESGVEDLSCRSPSGGEHAPSEDSGKDRDSDEAVFLTA
partner: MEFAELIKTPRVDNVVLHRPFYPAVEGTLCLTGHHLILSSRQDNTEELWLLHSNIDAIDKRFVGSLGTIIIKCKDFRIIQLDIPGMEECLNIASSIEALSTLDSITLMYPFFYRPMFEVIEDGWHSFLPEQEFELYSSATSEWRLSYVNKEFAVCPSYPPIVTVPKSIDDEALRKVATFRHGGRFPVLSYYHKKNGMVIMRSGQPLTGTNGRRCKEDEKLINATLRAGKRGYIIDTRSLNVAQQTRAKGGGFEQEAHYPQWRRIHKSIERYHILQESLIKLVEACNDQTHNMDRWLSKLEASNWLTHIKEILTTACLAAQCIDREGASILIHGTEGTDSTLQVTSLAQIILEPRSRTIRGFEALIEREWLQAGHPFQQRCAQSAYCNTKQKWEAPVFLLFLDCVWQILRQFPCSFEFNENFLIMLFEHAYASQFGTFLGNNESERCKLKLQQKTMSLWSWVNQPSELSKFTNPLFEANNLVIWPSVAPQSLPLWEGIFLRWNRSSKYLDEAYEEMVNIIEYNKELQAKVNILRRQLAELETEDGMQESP

Variants of: B1
Conditions: with vti1b_human VTI1B

Variant | effect of a mutation on the interaction
I277V | with no effect

Variants of: B2
Conditions: with leng1_human LENG1, Q96BZ8

Variant | effect of a mutation on the interaction
C62W | with no effect

Variants of: B3
Conditions: with ctsr1_human CATSPER1, Q8NEC5

Variant | effect of a mutation on the interaction
A115T | with no effect
R74Q | with no effect

Variants of: B4
Conditions: with zn774_human ZNF774, Q6NX45

Variant | effect of a mutation on the interaction
L12H | disrupting interaction strength

Variants of: B5
Conditions: with mtmr9_human MTMR9, Q96QG7

Variant | effect of a mutation on the interaction
M522T | with no effect
